According to US20240343811A1 (SHANDONG SIMCERE BIOPHARMACUTICAL, published 2024):

T1: human CD16b (NA2), full length, on FlpinCHO cells (human, UniProt O75015 17-200)
T1 construct: also called FlpinCHO-human CD16b (NA2)
T1 chain: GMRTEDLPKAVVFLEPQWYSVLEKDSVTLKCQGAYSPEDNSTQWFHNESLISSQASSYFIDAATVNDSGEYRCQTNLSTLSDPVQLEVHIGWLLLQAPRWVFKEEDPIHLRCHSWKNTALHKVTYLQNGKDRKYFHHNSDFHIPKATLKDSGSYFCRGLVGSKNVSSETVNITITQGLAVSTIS

T2: human CD16b (NA1), full length, on FlpinCHO cells (human, UniProt O75015 17-200)
T2 construct: also called FlpinCHO-human CD16b (NA1)
T2 chain: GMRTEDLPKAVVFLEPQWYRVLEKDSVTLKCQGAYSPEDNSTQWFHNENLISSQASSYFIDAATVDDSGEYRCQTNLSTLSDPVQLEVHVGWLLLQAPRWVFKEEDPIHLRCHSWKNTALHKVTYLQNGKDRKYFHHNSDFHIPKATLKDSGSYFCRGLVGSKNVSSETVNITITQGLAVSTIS

T3: Human CD16b (NA1)-his (human)
T3 construct: entry holds ECD, linker, His tag and AVI tag
T3 chain: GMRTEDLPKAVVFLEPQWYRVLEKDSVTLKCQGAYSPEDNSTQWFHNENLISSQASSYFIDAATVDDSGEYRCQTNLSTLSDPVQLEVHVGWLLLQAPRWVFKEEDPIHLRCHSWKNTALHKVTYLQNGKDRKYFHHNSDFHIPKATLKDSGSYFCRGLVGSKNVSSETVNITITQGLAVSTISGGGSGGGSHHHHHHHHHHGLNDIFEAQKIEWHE


Assays:
[1] = target: T4, CD16 on primary human NK cells (human, UniProt P08637 17-254); assay: FACS on human NK cells, biotinylated antibody
T4 construct: whole, on cells; also called resting NK cells

[2] = target: T1, human CD16b (NA2), full length, on …; assay: FACS on FlpinCHO cells
Method in brief: (§1)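 EC50 values come from fitted MFI curves measured by FACS. Antibody dilutions were bound for 1 hour on ice to CD16b-transfected FlpinCHO cells suspended in PBS with 2% BSA blocking solution.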

[3] = target: T2, human CD16b (NA1), full length, on …; assay: FACS on FlpinCHO cells
Method in brief: as §1

[4] = target: T4, CD16 on primary human NK cells; assay: FACS on human NK cells
Method in brief: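 EC50 came from curve fitting of flow-cytometric MFI. Antibody titrations were bound for 1 hour on ice to fresh human NK cells blocked in PBS with 2% (w/w) BSA (2×10⁶ cells/ml), followed by five PBS washes before acquisition.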

[5] = target: human CD16a (158V), full length, on cells (human, UniProt P08637 17-254); assay: cell-based or functional assay
Sequence of human CD16a (158V), full length, on cells (P08637 17-254 F176V limits assumed): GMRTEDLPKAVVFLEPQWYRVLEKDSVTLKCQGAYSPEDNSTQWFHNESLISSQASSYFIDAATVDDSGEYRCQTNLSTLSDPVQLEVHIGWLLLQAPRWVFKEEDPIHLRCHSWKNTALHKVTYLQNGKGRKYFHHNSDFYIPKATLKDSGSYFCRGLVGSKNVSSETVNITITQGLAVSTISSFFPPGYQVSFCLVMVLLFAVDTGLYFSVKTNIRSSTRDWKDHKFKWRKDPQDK

[6] = target: T4, CD16 on primary human NK cells; assay: FACS on human NK cells, biotinylated antibody, +10 mg/mL human immunoglobulin
Human CD16a (158V)-his = target: T5, Human CD16a (158V)-his (human); assay: SPR (Biacore), antibody captured on Protein A
T5 construct: entry holds ECD, AVI tag, linker and His tag
Method in brief: (§2)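 Protein A–captured antibody was probed with CD16-his ECD in HBS-EP+ at 25 °C: five 2-fold dilutions from 200 nM, 240 s at 30 μL/min, dissociation up to 600 s. Glycine pH 1.5 regenerated the chip. Apparent KD came from a double-referenced 1:1 Langmuir fit.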

Human CD16b (NA1)-his = target: T3, Human CD16b (NA1)-his; assay: SPR (Biacore), antibody captured on Protein A
Method in brief: as §2

Human CD16a (158F)-his = target: T6, Human CD16a (158F)-his (human); assay: SPR (Biacore), antibody captured on Protein A
T6 construct: entry holds ECD, AVI tag, linker and His tag
Method in brief: as §2

EC50 [1] [nM] | Maximum mean fluorescence intensity [1] | Maximum mean fluorescence intensity [2] | EC50 [3] [nM] | Maximum mean fluorescence intensity [3] | EC50 [4] [nM] | Maximum mean fluorescence intensity [4] | EC50, activation activity for Jurkat cell [5] [nM] | Maximum fluorescence value [5] | EC50 [6] [nM] | Maximum mean fluorescence intensity [6] | Kd (Human CD16a (158V)-his) [nM] | koff (Human CD16a (158V)-his) [s⁻¹] | kon (Human CD16a (158V)-his) [M⁻¹ s⁻¹] | Kd (Human CD16b (NA1)-his) [nM] | koff (Human CD16b (NA1)-his) [s⁻¹] | kon (Human CD16b (NA1)-his) [M⁻¹ s⁻¹] | Kd (Human CD16a (158F)-his) [nM] | koff (Human CD16a (158F)-his) [s⁻¹] | kon (Human CD16a (158F)-his) [M⁻¹ s⁻¹] | Binder | also measured
1.42 | 69600 | 1930 | 1.41 | 33300 | 0.54 | 2600 | 0.04 | 169000 | 3.9 | 80000 | 1.96 | 0.000213 | 109000 | 8.63 | 0.00113 | 130000 | 5.84 | 0.000374 | 64000 | VHH06 VHH-Fc antibody (Fc fusion) EVQLVESGGGLVQAGGSLRLSCVASGSTWTTYAVRWYRQAPGKQREWVAFISVDGSTNYPDSVKGRFIVSRDNAKNTVYLQMNSLKPEDTADYICRVGGQYWGQGTQVTVSSEPKSSDKTHTCPPCPAPEFEGGPSVFLFPPKPKDTLMISRTPEVTCVVVAVSHEDPEVKFNWYVDGVEVHNAKTKPREEQYNSTYRVVSVLTVLHQDWLNGKEYKCKVSNKALPAPIEKTISKAKGQPREPQVYTLPPSREEMTKNQVSLTCLVKGFYPSDIAVEWESNGQPENNYKTTPPVLDSDGSFFLYSKLTVDKSRWQQGNVFSCSVMHEALHNHYTQKSLSLSPGK | binding result [2]: no binding (tested: 100 nM)
0.95 | 60700 | 56900 | 1.03 | 37900 | 0.33 | 2660 | 0.03 | 166000 | 2.31 | 62300 | 32 | 0.0491 | 1.53e+06 | 6010 | 0.259 | 43100 | 42.9 | 0.0235 | 548000 | VHH11 VHH-Fc antibody (Fc fusion) EVQVVESGGGLAQAGGSLRLSCAVSGITFSSYAMGWYRQDPGKQRELVAAINRFGLTNYADSVKGRFTISRDNAKNTVYLQMTSLKPEDTAVYYCNTGGVYSHPNYYTGTYWGQGTQVTVSSEPKSSDKTHTCPPCPAPEFEGGPSVFLFPPKPKDTLMISRTPEVTCVVVAVSHEDPEVKFNWYVDGVEVHNAKTKPREEQYNSTYRVVSVLTVLHQDWLNGKEYKCKVSNKALPAPIEKTISKAKGQPREPQVYTLPPSREEMTKNQVSLTCLVKGFYPSDIAVEWESNGQPENNYKTTPPVLDSDGSFFLYSKLTVDKSRWQQGNVFSCSVMHEALHNHYTQKSLSLSPGK | EC50 [2]: 1.43 nM
0.4 | 46500 | 79100 | 0.62 | 58100 | 0.21 | 2680 | 0.02 | 165000 | 1.82 | 48900 | 10.8 | 0.0201 | 1.86e+06 | 1500 | 0.154 | 103000 | 13.3 | 0.0117 | 878000 | VHH12 VHH-Fc antibody (Fc fusion) QVQLVESGGGLVQAGGSLRLSCAASGITFSSYAMGWYRQAPGKQRELVAAINRFGLTNYADFVKGRFTISRVNAKNTVYLQMTSLKPEDTAVYYCNTGGVYSHPDYYTGTYWGQGTQVTVSSEPKSSDKTHTCPPCPAPEFEGGPSVFLFPPKPKDTLMISRTPEVTCVVVAVSHEDPEVKFNWYVDGVEVHNAKTKPREEQYNSTYRVVSVLTVLHQDWLNGKEYKCKVSNKALPAPIEKTISKAKGQPREPQVYTLPPSREEMTKNQVSLTCLVKGFYPSDIAVEWESNGQPENNYKTTPPVLDSDGSFFLYSKLTVDKSRWQQGNVFSCSVMHEALHNHYTQKSLSLSPGK | EC50 [2]: 0.96 nM
